According to patent US9717715B2, “Method of combination therapy using an anti-C-Met antibody” (Samsung Electronics Co., Ltd., priority 2013, dated 2017):

How the values were obtained:
[1] = tested on: Akt phosphorylation in Caki-1 cells; experiment: Akt phosphorylation (phospho-AKT1 Ser473 sandwich ELISA); assay type: cell-based; conditions: 5 ug/ml, FIG. 8B
Description: Cellular processes regulated by Akt include cell proliferation, cell survival, cell size control, and response to nutrient availability, intermediary metabolism, angiogenesis, and tissue invasion. All these processes represent characteristics of cancer and many oncoproteins and tumor suppressors intersect in the Akt pathway, finely regulating cellular functions at the interface of signal transduction and classical metabolic regulation. Thus, as the content of phosphorylated Akt that is an active form increases, the activity of cancer cells increases. Here, the degree of inhibiting Akt phosphorylation by the 4 types of antibodies having improved affinities was evaluated.
To compare agonism of the 4 types of antibodies having improved affinities, as prepared in Example 5, Caki-1 cells (Korean Cell Line Bank) were used to confirm the degree of Akt phosphorylation. Mouse IgG was used as a negative control, and antibody 5D5 (a known agonist) was used as a positive control.
2×10^5 cells/ml of Caki-1 cells were introduced to a 96-well plate, and after 24 hours, each of 5 ug/ml of the antibodies was treated in serum free medium for 30 minutes. Lysis of the cells treated with the antibodies was performed and the degree of Akt phosphorylation was measured using a PathScan phospho-AKT1 (Ser473) chemiluminescent Sandwich ELISA kit (Cell Signaling, cat. no #7134S). […]

[2] = target: T1, c-Met in MKN45 cells (Homo sapiens, UniProt P08581); experiment: Degree of degradation of c-Met (total c-Met ELISA); assay type: cell-based; conditions: 5 ug/ml, 24 hours, FIG. 9B
T1 construct: MKN45 gastric cancer cells on which c-Met is expressed; endogenous in cells; host or cells: MKN45 gastric cancer cells (JCRB)
T1 sequence (P08581 25-1390): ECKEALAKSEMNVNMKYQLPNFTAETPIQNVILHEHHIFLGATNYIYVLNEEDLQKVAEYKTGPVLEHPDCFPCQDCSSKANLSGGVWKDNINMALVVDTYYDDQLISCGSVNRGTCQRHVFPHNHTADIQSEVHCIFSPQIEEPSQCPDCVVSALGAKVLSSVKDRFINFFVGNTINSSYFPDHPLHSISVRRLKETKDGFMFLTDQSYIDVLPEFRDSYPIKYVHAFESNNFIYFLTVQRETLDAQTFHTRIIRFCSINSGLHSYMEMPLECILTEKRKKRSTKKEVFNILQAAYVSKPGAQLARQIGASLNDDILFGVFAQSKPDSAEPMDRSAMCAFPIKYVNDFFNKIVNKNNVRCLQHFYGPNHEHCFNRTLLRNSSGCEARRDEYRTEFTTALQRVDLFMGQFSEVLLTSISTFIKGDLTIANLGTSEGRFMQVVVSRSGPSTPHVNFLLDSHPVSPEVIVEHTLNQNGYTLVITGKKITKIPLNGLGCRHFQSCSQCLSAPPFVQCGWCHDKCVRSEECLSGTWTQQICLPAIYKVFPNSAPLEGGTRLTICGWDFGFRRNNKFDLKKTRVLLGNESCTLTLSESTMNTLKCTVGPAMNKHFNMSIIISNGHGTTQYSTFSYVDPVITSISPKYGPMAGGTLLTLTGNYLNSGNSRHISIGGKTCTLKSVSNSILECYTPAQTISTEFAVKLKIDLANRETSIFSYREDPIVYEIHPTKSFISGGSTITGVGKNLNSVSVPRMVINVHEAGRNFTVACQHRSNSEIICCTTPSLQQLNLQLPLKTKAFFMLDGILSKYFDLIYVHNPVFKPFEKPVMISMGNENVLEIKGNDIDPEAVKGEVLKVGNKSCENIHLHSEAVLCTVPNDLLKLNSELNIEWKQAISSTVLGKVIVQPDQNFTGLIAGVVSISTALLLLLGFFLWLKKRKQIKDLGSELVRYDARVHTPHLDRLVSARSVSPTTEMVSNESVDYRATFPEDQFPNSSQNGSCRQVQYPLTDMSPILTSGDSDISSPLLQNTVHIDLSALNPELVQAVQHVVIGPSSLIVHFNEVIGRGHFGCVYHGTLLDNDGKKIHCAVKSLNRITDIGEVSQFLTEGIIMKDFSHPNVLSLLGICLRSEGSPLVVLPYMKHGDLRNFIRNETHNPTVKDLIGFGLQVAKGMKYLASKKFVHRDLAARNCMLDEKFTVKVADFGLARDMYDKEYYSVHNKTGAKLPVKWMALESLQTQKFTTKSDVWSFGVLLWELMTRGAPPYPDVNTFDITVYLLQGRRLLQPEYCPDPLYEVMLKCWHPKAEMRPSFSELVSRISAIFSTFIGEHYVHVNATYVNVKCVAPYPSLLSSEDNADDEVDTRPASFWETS
Protocol: In order to identify anti-cancer effects of the 4 types of antibodies having improved affinities, as prepared in Example 5, the degree of degradation of c-Met bound to the antibodies was evaluated. A relative total amount of c-Met was obtained by measuring the change in the total amount of c-Met after the antibody binds to c-Met to degrade c-Met via internalization, and thus the efficacy of the antibody was evaluated.
(§1) MKN45 cells (2×10^5 cells/ml) and each of the antibodies (5 ug/ml) were simultaneously introduced to a 96-well plate and incubated for 24 hours. Then, lysis of the cells treated with antibodies was performed and the change in the total amount of c-Met was measured using a Human total HGF R/c-Met ELISA KIT (R&D systems, DYC358) and analyzed.
as §1, with “In order to identify anti-cancer effects of the 3 types of antibodies having improved affinities, as prepared in Example 11, the degree of degradation of c-Met bound to the antibody was evaluated. MKN45” for “MKN45”, “and a” for “and the”, “change of” for “change in”

B1: L3-11Y: light chain SEQ ID NO: 73 (serine 27e replaced with tryptophan) and the heavy chain of huAbF46-H4-A1 (IgG2 Fc) (antibody)
heavy: EVQLVESGGGLVQPGGSLRLSCAASGFTFTDYYMSWVRQAPGKGLEWLGFIRNKANGYTTEYSASVKGRFTISRDNSKNTLYLQMNSLRAEDTAVYYCARDNWFAYWGQGTLVTVSSASTKGPSVFPLAPCSRSTSESTAALGCLVKDYFPEPVTVSWNSGALTSGVHTFPAVLQSSGLYSLSSVVTVPSSNFGTQTYTCNVDHKPSNTKVDKTVERKCCVECPPCPAPPVAGPSVFLFPPKPKDTLMISRTPEVTCVVVDVSHEDPEVQFNWYVDGVEVHNAKTKPREEQFNSTFRVVSVLTVVHQDWLNGKEYKCKVSNKGLPAPIEKTISKTKGQPREPQVYTLPPSREEMTKNQVSLTCLVKGFYPSDIAVEWESNGQPENNYKTTPPMLDSDGSFFLYSKLTVDKSRWQQGNVFSCSVMHEALHNHYTQKSLSLSPGK
light: DIQMTQSPSSLSASVGDRVTITCKSSQSLLAWGNQNNYLAWYQQKPGKAPKMLIIWASTRVSGVPSRFSGSGSGTDFTLTISSLQPEDFATYYCQQSYSRPYTFGQGTKVEIKRTVAAPSVFIFPPSDEQLKSGTASVVCLLNNFYPREAKVQWKVDNALQSGNSQESVTEQDSKDSTYSLSSTLTLSKADYEKHKVYACEVTHQGLSSPVTKSFNRGEC
activity of Akt phosphorylation inhibition compared to huAbF46-H4-A1 (IgG2 Fc) [1]: equal or higher activity of Akt phosphorylation inhibition | activity of c-Met degradation compared to huAbF46-H4-A1 (IgG2 Fc) [2]: approximately equal activity of c-Met degradation
